Measured values from paper PMC9979147.

Target: Pertuzumab, 2 weeks stressed in PBS, pH 7.4
Assay: SPR; Biacore T200; pertuzumab immobilized on a Series S Protein A sensor chip (145 RU); single-cycle kinetics, five sequential injections of HER2 from 1.22 to 100 nM; phosphate-buffered saline with 0.05% Tween 20; flow 30 μL/min; 1:1 binding model

Pertuzumab, 2 weeks stressed in PBS, pH 7.4, sequence (heavy, as listed by the source, chain 1 of 2): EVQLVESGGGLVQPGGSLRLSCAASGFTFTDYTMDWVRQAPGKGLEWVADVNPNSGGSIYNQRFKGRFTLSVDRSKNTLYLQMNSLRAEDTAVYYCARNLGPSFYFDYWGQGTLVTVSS
Pertuzumab, 2 weeks stressed in PBS, pH 7.4, sequence (light, as listed by the source, chain 2 of 2): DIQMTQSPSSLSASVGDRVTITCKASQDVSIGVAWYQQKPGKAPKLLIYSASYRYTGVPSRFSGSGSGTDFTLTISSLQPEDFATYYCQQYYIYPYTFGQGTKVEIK

- Kd: 2.3 nM
Substance: Human HER2/ErbB2 protein, extracellular domain Thr23-Thr652, His Tag (from UniProt P04626 23-652) (domain or fragment)
